Values joined by “and” are separate entries in the source; they are usually repeats but may differ in a detail not shown here. Equal values may be shown once.
T1: Mpl-X (the soluble extra-cellular domain of the Mpl receptor) (human, UniProt P40238 26-491, coupled to CNBr activated Sepharose resin)
T1 construct: extracellular domain; also called hu-MPL-X
T1 sequence (looked up): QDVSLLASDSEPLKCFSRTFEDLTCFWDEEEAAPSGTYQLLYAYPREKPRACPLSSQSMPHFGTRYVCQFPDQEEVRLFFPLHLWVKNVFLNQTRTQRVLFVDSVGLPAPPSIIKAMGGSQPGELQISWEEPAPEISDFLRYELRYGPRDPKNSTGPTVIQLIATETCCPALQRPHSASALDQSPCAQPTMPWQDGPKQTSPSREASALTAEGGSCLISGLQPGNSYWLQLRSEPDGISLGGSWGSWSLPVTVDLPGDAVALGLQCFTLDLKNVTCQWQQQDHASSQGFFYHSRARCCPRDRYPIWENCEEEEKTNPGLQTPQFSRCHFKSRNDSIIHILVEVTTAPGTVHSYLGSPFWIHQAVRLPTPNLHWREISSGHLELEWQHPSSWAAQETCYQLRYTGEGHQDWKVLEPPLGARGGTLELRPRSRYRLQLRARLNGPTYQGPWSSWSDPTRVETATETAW

B1: CHO-derived MGDF 1-163 (ligand)
chain: SPAPPACDLRVLSKLLRDSHVLHSRLSQCPEVHPLPTPVLLPAVDFSLGEWKTQMEETKAQDILGAVTLLLEGVMAARGQLGPTCLSSLLGQLSGQVRLLLGALQSLLGTQLPPQGRTTAHKDPNAIFLSFQHLLRGKVRFLMLVGGSTLCVRRAPPTTAVPS
modifications: CHO-expressed material carries O-linked carbohydrate, which the letters do not show.
notes: see the note on m1; also called r-HuMGDF 1-163 (CHO)
B2: CHO-derived MGDF 1-153 (ligand)
chain: SPAPPACDLRVLSKLLRDSHVLHSRLSQCPEVHPLPTPVLLPAVDFSLGEWKTQMEETKAQDILGAVTLLLEGVMAARGQLGPTCLSSLLGQLSGQVRLLLGALQSLLGTQLPPQGRTTAHKDPNAIFLSFQHLLRGKVRFLMLVGGSTLCVR
modifications: CHO-expressed material carries O-linked carbohydrate, which the letters do not show.
notes: see the note on m1; also called r-HuMGDF 1-153 (CHO)

Molecular target: T1, Mpl-X (the soluble extra-cellular …)
Assay: Mpl-receptor affinity chromatography

| binding result | Molecule |
| --- | --- |
| binds | B1 |
| binds | B2 |

Molecular target: full length human Mpl receptor on 32D-MPL cells (human) (UniProt P40238)
Assay: cell-based or functional assay

| In Vitro Activity (units/ml), 32D-MPL cell proliferation | Specific Activity (units/ng), 32D-MPL cell proliferation / MGDF ELISA | Molecule |
| --- | --- | --- |
| 636 units/ml | 344 units/ng | [Asn25] MGDF 1-174 (ligand) |
| 6420 units/ml | 247 units/ng | [Asn30, Thr32, Asn120, Thr122] MGDF 1-174 (ligand) |
| 8830 units/ml | 232 units/ng | [Asn30, Thr32] MGDF 1-174 (ligand) |
| < 10 units/ml | < 8 units/ng | [Asn38, Thr40] MGDF 1-174 (ligand) |
| 18000 units/ml | 269 units/ng | [Asn53, Thr55] MGDF 1-174 (ligand) |
| 4850 units/ml | 271 units/ng | [Asn58, Thr60] MGDF 1-174 (ligand) |
| 2660 units/ml and 3080 units/ml | 443 units/ng and 655 units/ng | [Asn82, Ala83] MGDF 1-174 (ligand) |
| < 10 units/ml | < 22 units/ng | [Asn86] MGDF 1-174 (ligand) |
| 1970 units/ml | 188 units/ng | [Asn92] MGDF 1-174 (ligand) |
| 5940 units/ml and 9690 units/ml | 291 units/ng and 288 units/ng | [Asn120, Thr122] MGDF 1-174 (ligand) |
| < 10 units/ml | < 8 units/ng | [Ser36, Asn38, Thr40] MGDF 1-174 (ligand) |

Source: US7399833 (dated 2008)
